Data from paper doi:10.1101/2025.07.07.663466.

Target: T1, recombinant M. tuberculosis GroEL1 (M. tuberculosis), P9WPE9
T1 chain: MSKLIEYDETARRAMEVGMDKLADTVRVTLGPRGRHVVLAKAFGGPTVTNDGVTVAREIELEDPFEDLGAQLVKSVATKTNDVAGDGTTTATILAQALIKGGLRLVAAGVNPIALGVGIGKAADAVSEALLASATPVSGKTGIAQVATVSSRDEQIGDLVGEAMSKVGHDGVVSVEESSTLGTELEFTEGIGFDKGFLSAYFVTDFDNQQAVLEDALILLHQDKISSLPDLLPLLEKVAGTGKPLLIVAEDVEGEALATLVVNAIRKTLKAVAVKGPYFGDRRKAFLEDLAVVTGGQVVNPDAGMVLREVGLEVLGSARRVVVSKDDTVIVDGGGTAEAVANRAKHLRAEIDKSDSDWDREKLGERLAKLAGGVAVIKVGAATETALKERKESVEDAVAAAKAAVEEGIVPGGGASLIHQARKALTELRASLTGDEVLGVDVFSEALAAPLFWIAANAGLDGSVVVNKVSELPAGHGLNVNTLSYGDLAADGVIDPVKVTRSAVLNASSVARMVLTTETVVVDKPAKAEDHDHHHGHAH
Test: native gel or EMSA
Conditions: remark: other sources report otherwise

B1: recombinant M. tuberculosis GroEL1, P9WPE9 1-539 (natural protein)
chain: T1 chain
Binder B1 has a stoichiometry N of 2.
